Source: the supplement of paper PMC10126150
± gives the standard deviation of the averaged measurements.

System: ATP
Assay: switch fluorescence ratio, 500 uM ATP over buffer (Cy3 cluster intensity, sum of 5 cycles each) (fold (ratio)); higher = stronger signal-on switching upon ATP binding; sequences stand for … in TCGTCGGCAGCGTCAGATGTGTATAAGAGACAGTTTTTTTTTTTTTTTTTTTTTTTTT…TC
Details: aptamer strand: ATP DNA aptamer (quencher-CACCTGGGGGAGTATTGCGGAGGAAGG + anchor), 100 nM annealed; ATP concentration: 500 uM
How it was run: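 For every switch-domain sequence, the fluorescence ratio is the mean of per-cluster values, each being summed target-cycle Cy3 intensity over summed buffer-cycle Cy3 intensity. Clusters outside 100-1000 RFU were excluded. On a modified Illumina MiSeq flow-cell, the Cy3-labelled switching-strand clusters were annealed to 100 nM quencher-labelled ATP aptamer, imaged in selection buffer and then after 15 min with 500 uM ATP at 22 °C. Five such cycles were run, with NaOH stripping and re-annealing between them.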
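Also: ATP exposure 15 min at 22 °C before imaging.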

Row | Sequence | switch fluorescence ratio
1 | GGGTACGGTA | 1.05 ± 0.029
2 | TCTGGTGTTT | 0.986 ± 0.024
3 | ACAGTGTGGT | 1.07 ± 0.031
4 | AAAGGGTACT | 1.08 ± 0.064
5 | AGGAAGGGTG | 1.04 ± 0.022
6 | CATGCGAATA | 1.1 ± 0.033
7 | ATGGAAGGGC | 1.01 ± 0.011
8 | GGGGGGTTCC | 1.02 ± 0.044
9 | TTAGGCTGAT | 0.981 ± 0.02
10 | AGGGTCAGGA | 0.996 ± 0.021
11 | AGAGGGCCAT | 0.9972 ± 0.0021
12 | CTGGCATGGG | 0.979 ± 0.014
13 | TTAAAAAAAG | 1.01 ± 0.019
14 | ATAGGGAATG | 0.9986 ± 0.007
15 | TATTGCTTCA | 1.03 ± 0.016
16 | GTCTTGGGGG | 1 ± 0.023
17 | ATTTTAAATG | 1.04 ± 0.03
18 | GGGGGGTTAG | 0.991 ± 0.029
19 | CGGGTAGGGT | 0.998 ± 0.039
20 | TTATTAAGTT | 1.01 ± 0.027
21 | AACCTGCTAA | 1.057 ± 0.0014
22 | TCACGCTTGA | 1.05 ± 0.052
23 | CGCAAAGAAG | 1.08 ± 0.02

Row | Sequence | switch fluorescence ratio
24 | GCGACACACT | 1.47 ± 0.058
25 | GTAACTAGAG | 0.997 ± 0.033
26 | TTTTACGGTG | 0.978 ± 0.03
27 | TGGAGTGTTC | 1.06 ± 0.011
28 | ATAGAATTTA | 0.956 ± 0.024
29 | TATTGGTGGT | 0.995 ± 0.027
30 | TGGGGGGGCA | 1 ± 0.012
31 | ATGCCGGTAT | 0.999 ± 0.053
32 | TTCTAACCCC | 1.12 ± 0.012
33 | AGGTTTTATA | 0.9919 ± 0.0094
34 | ATTTAAGGGA | 0.982 ± 0.026
35 | AGGGCCGGGC | 0.962 ± 0.044
36 | ATGAAAGCGT | 1.032 ± 0.01
37 | GTGACCGGCG | 1.03 ± 0.053
38 | GTTTCAGGGA | 1.01 ± 0.013
39 | TGAGGTCAAA | 1.07 ± 0.041
40 | GATTTGATGT | 1 ± 0.03
41 | GGTTTTCTCA | 1.002 ± 0.008
42 | TTCGTGTGGT | 1 ± 0.019
43 | GGCAATGGTT | 1.1 ± 0.11
44 | TGGGACATTT | 1.04 ± 0.057
45 | TGAGCATGGG | 1 ± 0.029
46 | AAGATGTCGT | 1.022 ± 0.0014

Row | Sequence | switch fluorescence ratio
47 | TTTTAAAGCT | 1.09 ± 0.039
48 | GGCTGTTAAA | 0.978 ± 0.019
49 | TGCGTTGCGG | 0.978 ± 0.029
50 | ACTAATGGCT | 1.01 ± 0.02
51 | AGACGAAAAG | 1.03 ± 0.038
52 | TAGGATTGGG | 0.9894 ± 0.0053
53 | TTTCGGGTTT | 0.989 ± 0.028
54 | ATCTGCTTGA | 0.974 ± 0.042
55 | ATAATTTTCA | 1.01 ± 0.03
56 | ATTAGGGGGT | 0.988 ± 0.036
57 | GCTAGTGCTA | 0.996 ± 0.04
58 | GTCAACTGAG | 1.05 ± 0.04
59 | CCCGATGAGC | 1.05 ± 0.025
60 | ACTACCGGCG | 1.09 ± 0.022
61 | GGTAATTGTT | 0.998 ± 0.025
62 | GTTGACAGG | 1.025 ± 0.0066
63 | AGGCCCGGGA | 0.997 ± 0.013
64 | GCGTGTCTAT | 0.991 ± 0.019
65 | GGAGGGATGG | 1.13 ± 0.2
66 | AATAGAGGTC | 0.988 ± 0.013
67 | CGGTTAGGTG | 1.06 ± 0.021
68 | GGTTTAGGTT | 1.01 ± 0.029
69 | TTGCTCATAT | 1.02 ± 0.049

Row | Sequence | switch fluorescence ratio
70 | TTTGAGGCCT | 0.99 ± 0.025
71 | TTGGGACGGA | 1.01 ± 0.034
72 | GGGCATGCAT | 1.019 ± 0.0086
73 | ATGGGAGGGA | 1.01 ± 0.021
74 | TCGTTGGGGG | 0.995 ± 0.013
75 | GAGTCTAAGT | 0.996 ± 0.026
76 | CACATCATAT | 1.04 ± 0.039
77 | CGGTGGGATT | 0.979 ± 0.019
78 | AATTATACGT | 1.05 ± 0.014
79 | CGCATTTTTT | 1.13 ± 0.12
80 | CCCTCTCGGT | 1.037 ± 0.0028
81 | TTAATTTTCG | 1.04 ± 0.066
82 | TAAAGTTAGC | 0.995 ± 0.028
83 | ATGGAAATTG | 0.954 ± 0.019
84 | ATTAAAGCGT | 1 ± 0.016
85 | AAAATTTTGG | 1 ± 0.043
86 | AATCGGCTCA | 0.98074 ± 0.00017
87 | TTTCAAGGGT | 0.9851 ± 0.0031
88 | ATTTTTGAAC | 0.99 ± 0.019
89 | AAGTTGATTC | 0.979 ± 0.016
90 | CGCTGACCTT | 1.2 ± 0.037
91 | CATGGATGGC | 1.06 ± 0.03
92 | GTATGAGTTG | 1.02 ± 0.027

Row | Sequence | switch fluorescence ratio
93 | AACGTGATTA | 1.07 ± 0.023
94 | TATCTGGGTC | 1.02 ± 0.067
95 | TTCTGGTGCA | 1.02 ± 0.047
96 | TTAGGTTAGG | 0.9765 ± 0.0064
97 | CTAACGGAAT | 1.7 ± 0.34
98 | TAATTGAGCA | 0.99 ± 0.019
99 | GTTAGATACG | 1 ± 0.028
100 | GTTGTTGTCG | 0.974 ± 0.1
101 | GGGCTTTACG | 1.01 ± 0.011
102 | GTTGAGGGA | 1.04 ± 0.079
103 | CAATGTGGGA | 1.01 ± 0.021
104 | TAGGCCATAG | 1.008 ± 0.0055
105 | GTGGGAGGTT | 0.948 ± 0.036
106 | ACAGGGGCAG | 1.02 ± 0.017
107 | TAGATTTTAT | 1.01 ± 0.042
108 | TGTTTTTAGC | 1.0151 ± 0.00055
109 | ACGGGACGTA | 1.04 ± 0.014
110 | GTTGCATGGG | 0.963 ± 0.012
111 | ATGATGATGG | 0.9858 ± 0.0096
112 | ACGGTTTCTT | 0.9771 ± 0.0039
113 | GTGAACAGCA | 1.01 ± 0.025
114 | CCGTTTAAAA | 1.11 ± 0.15
115 | TAGGTATATC | 0.9843 ± 0.006

Row | Sequence | switch fluorescence ratio
116 | TTTTTTAAGA | 1.01 ± 0.025
117 | TTGTGTTATC | 1.01 ± 0.012
118 | TAGGGGATGC | 1 ± 0.015
119 | GGGGGGATCG | 0.9791 ± 0.008
120 | TTCAGGTTGG | 1.08 ± 0.082
121 | TCAAGTATCT | 1.02 ± 0.041
122 | ACCATGTATC | 0.998 ± 0.026
123 | GCTGATGCGT | 1.01 ± 0.038
124 | GTGGGATGAG | 1.01 ± 0.022
125 | CCATTTACGT | 1.04 ± 0.025
126 | CGGACTTATT | 0.9686 ± 0.0054
127 | TGGGTGGCGG | 0.945 ± 0.052
128 | GGGTGTAATC | 1.01 ± 0.024
129 | TAGTCTTTAG | 1.01 ± 0.0072
130 | TTTTTTGTGC | 0.9901 ± 0.0052
131 | TTAAGATTTC | 1.13 ± 0.14
132 | GGACGGTAGG | 0.979 ± 0.011
133 | CAGGTCGCGG | 1.005 ± 0.006
134 | GGGACCGGCA | 1.01 ± 0.029
135 | AATCCATGCG | 1.004 ± 0.0076
136 | TTGGTGACGT | 1.03 ± 0.022
137 | ATGTTTAGAA | 0.9607 ± 0.0073
138 | TTCCAGGTTC | 1.04 ± 0.012

Row | Sequence | switch fluorescence ratio
139 | CAATGGGGGG | 1.02 ± 0.03
140 | AATTGAGTGT | 1.01 ± 0.019
141 | TTTATCGTTG | 0.998 ± 0.025
142 | AGGCGGGTAT | 1.015 ± 0.0028
143 | AGCTGTTTGG | 1 ± 0.015
144 | TGAGATGGGG | 0.99 ± 0.021
145 | CCTTGTGCAG | 1.25 ± 0.018
146 | TTTTATCGGG | 0.971 ± 0.016
147 | AGGTAGGGGG | 0.993 ± 0.019
148 | TGGAGGGTGG | 1.01 ± 0.019
149 | GAGTTCCGGG | 1.01 ± 0.024
150 | ACGGGCATTT | 0.994 ± 0.04
151 | CCTAGGGGAG | 1.04 ± 0.04
152 | AGTTTGTTTG | 1.006 ± 0.009
153 | GTTGTAGATG | 1.005 ± 0.0058
154 | ATTAGGTTGG | 0.987 ± 0.027
155 | AAGTAGTGGG | 0.96 ± 0.028
156 | ACAGGAGAC | 1.0379 ± 0.00024
157 | AGGTCAGAGA | 1 ± 0.028
